Earlier results in PMC4459106.

Biological target: KIM15-31 (HePTP) 15-31 (Homo sapiens) (UniProt P35236)

Kd: 1300 nM
Substance: ppERK2 (from UniProt P63086)
